For this experiment, the target named is p-ERK1/2 (Thr202/Tyr204). In words: co-IP (IP: Flag, IB: p-ERK1/2), band intensity quantified in bar chart. The conditions noted are these: whole-cell extracts from MCF-7C5RN cells; without CGP57380; parent: est. 0.24; read off a plot.

In the case of “Flag-WTAP (wild type) (from UniProt Q15007) S341A”, the response worked out at 0.11.

These data come from publication PMC8313695.
